Source: patent US20110046068A1 (MEDICAL RESEARCH COUNCIL, published 2011)
Non-standard residues stand in square brackets, D forms with d. No end group written: not given here.

Columns and labels:
human gpr-54 receptor [1] = target: T1, human gpr-54 receptor (human, UniProt Q969F8 1-398); experiment: whole-cell competition binding against 125I-kisspeptin, CHO cells stably transfected with hGPR54 (CPM); no lower plateau reached at -5 LogM [186]
T1 construct: whole, on cells; CHO cells stably expressing the human gpr-54 receptor came from Prof; G. Vassart; also called kisspeptin receptor; AXOR12
Method: (§1) Cell monolayers were placed on ice and exposed to 0.5 mls peptide (10 pM-1 uM); the cells were then incubated at 4° C. for 4 hr. After 4 hrs, cells were washed twice with ice cold Dulbecco's phosphate buffered saline (DPBS; with Calcium and Magnesium) and then 0.5 mls 0.1M Sodium Hydroxide (NaOH) were added to cells for 20 minutes, shaking to lyse cells. Lysates were transferred to plastic tubes and bound radioactivity counted on the gamma counter for 60 seconds.

human gpr-54 receptor [2] = target: T1, human gpr-54 receptor; experiment: cell-based or functional assay
human gpr-54 receptor [3] = target: T1, human gpr-54 receptor; experiment: cell-based or functional assay; remark: listed apart in the source
human gpr-54 receptor [4] = target: T1, human gpr-54 receptor; experiment: cell-based or functional assay; remark: listed apart in the source
human gpr-54 receptor [5] = target: T1, human gpr-54 receptor; experiment: whole-cell competition binding against 125I-kisspeptin, CHO cells stably transfected with GPR54 (CPM); the curve falls between Total and -9 LogM [209]
Method: as §1

human gpr-54 receptor [6] = target: T1, human gpr-54 receptor; experiment: whole-cell competition binding against 125I-kisspeptin, CHO cells stably transfected with GPR54 (CPM) [208]
Method: as §1

human gpr-54 receptor [7] = target: T1, human gpr-54 receptor; experiment: cell-based or functional assay; remark: listed apart in the source
human gpr-54 receptor [8] = target: T1, human gpr-54 receptor; experiment: whole-cell competition binding against 125I-kisspeptin, CHO cells stably transfected with GPR54 (CPM) [210]
Method: as §1

human gpr-54 receptor [9] = target: T1, human gpr-54 receptor; experiment: whole-cell competition binding against 125I-kisspeptin, CHO cells stably transfected with GPR54 (CPM) [229]
Method: as §1

human gpr-54 receptor [10] = target: T1, human gpr-54 receptor; experiment: cell-based or functional assay; remark: listed apart in the source
human gpr-54 receptor [11] = target: T1, human gpr-54 receptor; experiment: whole-cell competition binding against 125I-kisspeptin, CHO cells stably transfected with GPR54 (CPM); the fall of the curve lies between Total and -10 LogM [231]
Method: as §1

human gpr-54 receptor [12] = target: T1, human gpr-54 receptor; experiment: cell-based or functional assay; remark: listed apart in the source
human gpr-54 receptor [13] = target: T1, human gpr-54 receptor; experiment: cell-based or functional assay; remark: listed apart in the source
human gpr-54 receptor [14] = target: T1, human gpr-54 receptor; experiment: whole-cell competition binding against 125I-kisspeptin, CHO cells stably transfected with GPR54 (CPM); upper curve, no lower plateau reached at -5 LogM [212]
Method: as §1

human gpr-54 receptor [15] = target: T1, human gpr-54 receptor; experiment: whole-cell competition binding against 125I-kisspeptin, CHO cells stably transfected with GPR54 (CPM); the fall of the curve lies between Total and -10 LogM [228]
Method: as §1

human gpr-54 receptor [16] = target: T1, human gpr-54 receptor; experiment: cell-based or functional assay; remark: listed apart in the source
human gpr-54 receptor [17] = target: T1, human gpr-54 receptor; experiment: whole-cell competition binding against 125I-kisspeptin, CHO cells stably transfected with human GPR54 (CPM); no lower plateau reached at -5 LogM [211]
Method: as §1

human gpr-54 receptor [18] = target: T1, human gpr-54 receptor; experiment: whole-cell competition binding against 125I-kisspeptin, CHO cells stably transfected with GPR54 (CPM); the fall of the curve lies between Total and -11 LogM [202]
Method: as §1

human gpr-54 receptor [19] = target: T1, human gpr-54 receptor; experiment: cell-based or functional assay; remark: listed apart in the source
human gpr-54 receptor [20] = target: T1, human gpr-54 receptor; experiment: whole-cell competition binding against 125I-kisspeptin, CHO cells stably transfected with GPR54 (CPM); the drawn curve falls between Total and -10 LogM, which does not fit the printed number [207]
human gpr-54 receptor [21] = target: T1, human gpr-54 receptor; experiment: cell-based or functional assay; remark: listed apart in the source
human gpr-54 receptor [22] = target: T1, human gpr-54 receptor; experiment: whole-cell competition binding against 125I-kisspeptin, CHO cells stably transfected with GPR54 (CPM); the fall of the curve lies between Total and -11 LogM [206]
Method: as §1

human gpr-54 receptor [23] = target: T1, human gpr-54 receptor; experiment: whole-cell competition binding against 125I-kisspeptin, CHO cells stably transfected with GPR54 (CPM); the fall of the curve lies between Total and -11 LogM [203]
Method: as §1

T1 sequence (Q969F8 whole entry): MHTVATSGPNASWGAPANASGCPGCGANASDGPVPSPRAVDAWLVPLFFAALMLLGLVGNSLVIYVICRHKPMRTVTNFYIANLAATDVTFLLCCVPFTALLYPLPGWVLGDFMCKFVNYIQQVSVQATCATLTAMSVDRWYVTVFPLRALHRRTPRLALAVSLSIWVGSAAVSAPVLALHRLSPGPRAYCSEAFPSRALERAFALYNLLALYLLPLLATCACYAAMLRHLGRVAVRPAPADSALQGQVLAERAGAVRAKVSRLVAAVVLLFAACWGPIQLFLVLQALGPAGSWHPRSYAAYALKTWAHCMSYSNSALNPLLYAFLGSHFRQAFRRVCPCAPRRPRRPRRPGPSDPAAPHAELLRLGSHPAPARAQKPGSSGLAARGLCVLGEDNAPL

| IP stimulation (IC50), peptide alone (human gpr-54 receptor [2]) [nM] | Inhibition of IP stimulation by 10nM Agonist: % Inhibition of Max (human gpr-54 receptor [2]) [%] | Inhibition of IP stimulation by 10nM Agonist: IC50 (human gpr-54 receptor [2]) [nM] | Binder | other results |
| --- | --- | --- | --- | --- |
| 150 | 70 |  | Ac-NSFGLRF-NH2 (kisspeptin-10 analogue; also called Peptide 186; acNSFGLRF) [186] | IC50 (human gpr-54 receptor [1]): 1850 nM; IP competition with 10nM kisspeptin-10: IC50 [186] (human gpr-54 receptor [3]): 0.5 nM; IP dose response, peptide alone: EC50 (unlabelled number beside rising curve) [186] (human gpr-54 receptor [3]): 592 nM |
|  | 81 | 100 | YNWNGFG[dL]RF-NH2 (N-terminus assumed; SMILES CC(C)C[C@@H](NC(=O)CNC(=O)[C@H](Cc1ccccc1)NC(=O)CNC(=O)[C@H](CC(N)=O)NC(=O)[C@H](Cc1c[nH]c2ccccc12)NC(=O)[C@H](CC(N)=O)NC(=O)[C@@H](N)Cc1ccc(O)cc1)C(=O)N[C@@H](CCCNC(=N)N)C(=O)N[C@@H](Cc1ccccc1)C(N)=O, kisspeptin-10 analogue; also called Peptide 209; YNWNGFG[(D)-L]RF) [209] | IP competition with 10nM kisspeptin-10: IC50 [209] (human gpr-54 receptor [4]): 100 nM; IC50 (human gpr-54 receptor [5]): 0.0157 nM |
| 45.6 | 55 | 1000 | YNWNGFGLRF-NH2 (kisspeptin-10 analogue) [208] | IC50 (human gpr-54 receptor [6]): 70.3 nM; Antagonistic assay with kisspeptin-10: IC50 [208] (human gpr-54 receptor [4]): 1000 nM |
|  | 64 | < 0.1 | YNWNGFG[dW]RF-NH2 (kisspeptin-10 analogue; also called compound 210) [210] | IP competition with 10nM kisspeptin-10: IC50 [210] (human gpr-54 receptor [7]): < 0.1 nM; IC50 (human gpr-54 receptor [8]): 1300 nM |
|  | 68 | 8000 | Ac-YNWN[dW]FG[dW]RF-NH2 (SMILES CC(=O)N[C@@H](Cc1ccc(O)cc1)C(=O)N[C@@H](CC(N)=O)C(=O)N[C@@H](Cc1c[nH]c2ccccc12)C(=O)N[C@@H](CC(N)=O)C(=O)N[C@H](Cc1c[nH]c2ccccc12)C(=O)N[C@@H](Cc1ccccc1)C(=O)NCC(=O)N[C@H](Cc1c[nH]c2ccccc12)C(=O)N[C@@H](CCCNC(=N)N)C(=O)N[C@@H](Cc1ccccc1)C(N)=O, kisspeptin-10 analogue; also called acYNWN[(D)-W]FG[(D)-W]RF) [229] | IC50 (human gpr-54 receptor [9]): 1.17 nM; IP competition with 10nM kisspeptin-10: IC50 [229] (human gpr-54 receptor [10]): 8000 nM |
|  | 55 | 0.1 | Ac-YN[dW]NGFG[dW]RF-NH2 (SMILES CC(=O)N[C@@H](Cc1ccc(O)cc1)C(=O)N[C@@H](CC(N)=O)C(=O)N[C@H](Cc1c[nH]c2ccccc12)C(=O)N[C@@H](CC(N)=O)C(=O)NCC(=O)N[C@@H](Cc1ccccc1)C(=O)NCC(=O)N[C@H](Cc1c[nH]c2ccccc12)C(=O)N[C@@H](CCCNC(=N)N)C(=O)N[C@@H](Cc1ccccc1)C(N)=O, kisspeptin-10 analogue; also called acYN[(D)-W]NGFG[(D)-W]RF) [231] | IC50 (human gpr-54 receptor [11]): 0.000564 nM; IP competition with 10nM kisspeptin-10: IC50 [231] (human gpr-54 receptor [12]): 0.1 nM |
| 300000 | 88 | < 0.1 | YNWNG[dW]GLRF-NH2 (N-terminus assumed; SMILES CC(C)C[C@H](NC(=O)CNC(=O)[C@@H](Cc1c[nH]c2ccccc12)NC(=O)CNC(=O)[C@H](CC(N)=O)NC(=O)[C@H](Cc1c[nH]c2ccccc12)NC(=O)[C@H](CC(N)=O)NC(=O)[C@@H](N)Cc1ccc(O)cc1)C(=O)N[C@@H](CCCNC(=N)N)C(=O)N[C@@H](Cc1ccccc1)C(N)=O, kisspeptin-10 analogue; also called YNWNG[(D)-W]GLRF) [212] | IP competition with 10nM kisspeptin-10: IC50 [212] (human gpr-54 receptor [13]): < 0.1 nM; IP dose response, peptide alone: EC50 (unlabelled number beside rising curve; rise only at -5 LogM) [212] (human gpr-54 receptor [13]): 0.000205 M; IC50 (human gpr-54 receptor [14]): 6330 nM |
|  | 58 | 50 | Ac-YNWNGFG[dW]RF-NH2 (SMILES CC(=O)N[C@@H](Cc1ccc(O)cc1)C(=O)N[C@@H](CC(N)=O)C(=O)N[C@@H](Cc1c[nH]c2ccccc12)C(=O)N[C@@H](CC(N)=O)C(=O)NCC(=O)N[C@@H](Cc1ccccc1)C(=O)NCC(=O)N[C@H](Cc1c[nH]c2ccccc12)C(=O)N[C@@H](CCCNC(=N)N)C(=O)N[C@@H](Cc1ccccc1)C(N)=O, kisspeptin-10 analogue; also called acYNWNGFG[(D)-W]RF) [228] | IC50 (human gpr-54 receptor [15]): 0.00655 nM; IP competition with 10nM kisspeptin-10: IC50 [228] (human gpr-54 receptor [16]): 50 nM |
| 2570 | 73 | 1000 | YNWNG[dF]GLRF-NH2 (N-terminus assumed; SMILES CC(C)C[C@H](NC(=O)CNC(=O)[C@@H](Cc1ccccc1)NC(=O)CNC(=O)[C@H](CC(N)=O)NC(=O)[C@H](Cc1c[nH]c2ccccc12)NC(=O)[C@H](CC(N)=O)NC(=O)[C@@H](N)Cc1ccc(O)cc1)C(=O)N[C@@H](CCCNC(=N)N)C(=O)N[C@@H](Cc1ccccc1)C(N)=O, kisspeptin-10 analogue; also called YNWNG[(D)-F]GLRF) [211] | IC50 (human gpr-54 receptor [17]): 4320 nM; IP competition with 10nM kisspeptin-10: IC50 [211] (human gpr-54 receptor [7]): 1000 nM |
| > 100000 | 64 | 10 | Ac-AGLRW-NH2 (kisspeptin-10 analogue; also called acAGLRW) [202] | IC50 (human gpr-54 receptor [18]): 0.00032 nM; IP competition with 10nM kisspeptin-10: IC50 [202] (human gpr-54 receptor [19]): 10 nM; IP dose response, peptide alone: EC50 (unlabelled number beside rising curve; rise only at -5 LogM) [202] (human gpr-54 receptor [19]): 0.00109 M |
|  | 0 |  | Ac-FG[dF]RF-NH2 (SMILES CC(=O)N[C@@H](Cc1ccccc1)C(=O)NCC(=O)N[C@H](Cc1ccccc1)C(=O)N[C@@H](CCCNC(=N)N)C(=O)N[C@@H](Cc1ccccc1)C(N)=O, kisspeptin-10 analogue; also called acFG[(D)-F]RF) [207] | IC50 (human gpr-54 receptor [20]): 110 nM |
|  | 68 | 10 | Ac-FG[dW]RF-NH2 (SMILES CC(=O)N[C@@H](Cc1ccccc1)C(=O)NCC(=O)N[C@H](Cc1c[nH]c2ccccc12)C(=O)N[C@@H](CCCNC(=N)N)C(=O)N[C@@H](Cc1ccccc1)C(N)=O, kisspeptin-10 analogue; also called acFG[(D)-W]RF) [206] | IP competition with 10nM kisspeptin-10: IC50 [206] (human gpr-54 receptor [21]): 10 nM; IC50 (human gpr-54 receptor [22]): 0.0352 pM |
| 150000 | 71 | 0.1 | Ac-[dF]WLRW-NH2 (SMILES CC(=O)N[C@H](Cc1ccccc1)C(=O)N[C@@H](Cc1c[nH]c2ccccc12)C(=O)N[C@@H](CC(C)C)C(=O)N[C@@H](CCCNC(=N)N)C(=O)N[C@@H](Cc1c[nH]c2ccccc12)C(N)=O, kisspeptin-10 analogue; also called ac[F-(D)]WLRW) [203] | IC50 (human gpr-54 receptor [23]): 0.000307 nM; IP competition with 10nM kisspeptin-10: IC50 [203] (human gpr-54 receptor [19]): 0.1 nM; IP dose response, peptide alone: EC50 (unlabelled number beside rising curve; rise only at -5 LogM) [203] (human gpr-54 receptor [19]): 0.000156 M |
